US20240382628A1

Biological target: CD11b on cells in whole blood (species not stated) (Homo sapiens (Human)) (UniProt P11215)
Experiment: adhesion of antibody-bearing backpacks to cells in whole blood

% of CD14+ monocytes with adhered backpacks: 95%
Substance: CD11b antibody (M1/70 clone, Biolegend Purified anti-mouse/human CD11b Antibody Cat #101201/101202), on polymeric particles (backpacks)
